The data set deals with the molecule itself. As to the kind of experiment: cryo-EM structure; purified THIK1EM at 2.4 mg/mL in 150 mM KCl, 20 mM Tris pH 8, 0.01% GDN; 300 kV Titan Krios, RELION; 3.2 Å.

B1: C-terminally truncated human THIK1 (KCNK13), residues 1 to 309 (domain or fragment, UniProt Q9HB14 1-309, looked up)
chain: MAGRGFSWGPGHLNEDNARFLLLAALIVLYLLGGAAVFSALELAHERQAKQRWEERLANFSRGHNLSRDELRGFLRHYEEATRAGIRVDNVRPRWDFTGAFYFVGTVVSTIGFGMTTPATVGGKIFLIFYGLVGCSSTILFFNLFLERLITIIAYIMKSCHQRQLRRRGALPQESLKDAGQCEVDSLAGWKPSVYYVMLILCTASILISCCASAMYTPIEGWSYFDSLYFCFVAFSTIGFGDLVSSQNAHYESQGLYRFANFVFILMGVCCIYSLFNVISILIKQSLNWILRKMDSGCCPQCQRGLLRS
modifications: N-glycosylation at N59 and N65
notes: C-terminally truncated; The N-terminal GFP-His10 tags were removed by PreScission (3C) protease at LEVLFQ/GP; residues of the cleavage site probably remain at the N-terminus (surmised); Homodimeric K2P channel in GDN detergent; also called THIK1EM; hTHIK1EM; source: HEK293 GnTi- cells, baculovirus (BacMam) infection, purified (GFP-nanobody resin, 3C cleavage, Superdex 200 in GDN); not shown: GFP, …
For B1, the stoichiometry N (in general, the number of molecules, sites or subunits per partner or assembly) came out at 2.
